How the values were obtained:
CHO cells = test: Effect on growth of CHO cells
Description: Next, 3-iodo-L-tyrosine was added to the medium to a final concentration of 0.3 mM (L-tyrosine was present at twice that concentration (FIG. 5B)).

[1] = test system: amber mutation in ras(Am); test: Amber suppression of ras(Am) in CHO cells, western blotting with anti-FLAG antibody; type: cell-based, Chinese hamster; settings: for suppression efficiency (comparison): Ras and EGFR amber mutants, tetracycline 1 μg/mL
Description: Transfection was carried out using 0.5 to 2 μg of DNA for each plasmid per 35 mm plate in accordance with the Lipofect AMINE 2000 (Gibco BRL) method. Opti-MEM 1 (Gibco BRL) was used for the medium. Cell extracts were prepared 24 hours after transfection and applied to SDS-PAGE followed by western blotting using anti-FLAG2 antibody (Sigma) and the ECL+ Immunodetection System (Amersham Pharmacia Biotech). Band intensity was measured using the LAS-1000 plus image analyzer (Fuji Film).
In order to analyze amber suppression, the tyrosine codon at position 32 in a synthetic ras gene truncated from the wild type c-Ha-Ras was mutated to an amber codon. In order to detect expression, a FLAG peptide tag was added to the C-terminals of the ras genes, ras(WT) and its amber mutant ras(Am), and to the C-terminal of E. coli TyrRS.
These ras gene were introduced into CHO cells, and their products were detected by western blotting of cell extracts using anti-FLAG antibody (FIG. 4A).

TyrRS = test: Aminoacylation reaction of TyrRS variants, inorganic phosphate detected with Biomol Green; type: biochemical, E. coli; parameters: key: +++: the activity detected with an enzyme concentration of 0.50 μM; ++: the activity detected with an enzyme concentration of 0.25 μM; the activity detected with an enzyme concentration of 0.25 μM, although the activity is lower than that represented by “++”; −: no activity detected with an enzyme concentration of 0.25 μM
Description: More preferably, a mutant TyrRS can be used in which the location corresponding to tyrosine (Y) at position 37 is substituted with valine (V), leucine (L), isoleucine (I) or alanine (A), and the location corresponding to glutamine (Q) at position 195 is substituted with alanine (A), cysteine (C), serine (S) or asparagine (N).

N[C@@H](Cc1ccc(O)c(I)c1)C(=O)O [3-iodo-L-tyrosine, reference compound]
effect on cell reproduction (CHO cells; 0.3 mM in the medium): hardly any effect on cell reproduction

B1: TetBst2: tet02 sequence 20 bases upstream from the suppressor tRNA gene, SEQ. ID NO. 32 (nucleic acid)
DNA: TCTCCCTATCAGTGATAGAGATCCGCCGACACACGTACACGTCGGAGGGGTAGCGAAGTGGCTAAACGCGGCGGACTCTAAATCCGCTCCCTTTGGGTTCGGCGGTTCGAATCCGTCCCCCTCCAGACAAGTGCGGTTTTTTTCTCCAGCTCCCG
modifications: a sequence of one of the induced expression systems prepared in Example 2 (TetBst2)
suppression efficiency (comparison) [1]: lower than that of TetBst1

B2: TetBst1: tet02 sequence 10 bases upstream from the suppressor tRNA gene, SEQ. ID NO. 31 (nucleic acid)
DNA: TCTCCCTATCAGTGATAGAGATCCGTACACGTCGGAGGGGTAGCGAAGTGGCTAAACGCGGCGGACTCTAAATCCGCTCCCTTTGGGTTCGGCGGTTCGAATCCGTCCCCCTCCAGACAAGTGCGGTTTTTTTCTCCAGCTCCCG
modifications: a sequence of one of the induced expression systems prepared in Example 1 (TetBst1)
suppression efficiency (comparison) [1]: higher suppression efficiency than TetBst0

B3: TetBst0×1: tet02 sequence immediately before the suppressor tRNA gene, SEQ. ID NO. 30, single copy (nucleic acid)
DNA: TCTCCCTATCAGTGATAGAGATCGGAGGGGTAGCGAAGTGGCTAAACGCGGCGGACTCTAAATCCGCTCCCTTTGGGTTCGGCGGTTCGAATCCGTCCCCCTCCAGACAAGTGCGGTTTTTTTCTCCAGCTCCCG
modifications: a sequence of one of the induced expression systems prepared in Example 2 (TetBst0)
notes: ID NO; 30, single copy
suppression when tetracycline is not added ([1]; no tetracycline): nearly complete absence of suppression

B4: Wild Type (Y37, Q195): TyrRS (wild type) of E. coli, SEQ. ID NO. 29 (protein, listed as Escherichia coli)
chain: MASSNLIKQLQERGLVAQVTDEEALAERLAQGPIALYCGFDPTADSLHLGHLVPLLCLKRFQQAGHKPVALVGGATGLIGDPSFKAAERKLNTEETVQEWVDKIRKQVAPFLDFDCGENSAIAANNYDWFGNMNVLTFLRDIGKHFSVNQMINKEAVKQRLNREDQGISFTEFSYNLLQGYDFACLNKQYGVVLQIGGSDQWGNITSGIDLTRRLHQNQVFGLTVPLITKADGTKFGKTEGGAVWLDPKKTSPYKFYQFWINTADADVYRFLKFFTFMSIEEINALEEEDKNSGKAPRAQYVLAEQVTRLVHGEEGLQAAKRITECLFSGSLSALSEADFEQLAQDGVPMVEMEKGADLMQALVDSELQPSRGQARKTIASNAITINGEKQSDPEYFFKEEDRLFGRFTLLRRGKKNYCLICWK
Activity of TyrRS variants with 3-iodo-L-tyrosine (TyrRS; amino acid: 3-iodo-L-tyrosine): −
Activity of TyrRS variants with Tyrosine (TyrRS; amino acid: Tyrosine): +++
effect on growth rate of CHO cells (CHO cells; expression from a transiently introduced plasmid): hardly affect the growth rate

Source: US7566555B2, “Method of expressing proteins comprising non-naturally-occurring amino acids” (Riken, priority 2002, dated 2009)
